Substitutions are numbered along the chain they refer to.

The target in assay [1] is T1, human PD-1 (amino acids 1-185) stably expressed on Jurkat cells (human, UniProt Q15116 21-185).
T1 construct: extracellular domain and a portion of the transmembrane domain, on cells; also called hPD-1; Jurkat+hPD-1 cell line
Description: flow cytometry, Jurkat+hPD-1. As to the method: (§1) Antibodies or antibody-attenuated hIL-2 immunoconjugates (fusion proteins) were serially diluted six-fold in FACS buffer for an 8-point curve and added to human PD-1 expressing Jurkat cells for 1 hour on ice in 100 μL volume. Cells were washed and re-suspended in FACS buffer containing 1:40 dilution of Allophycocyanin conjugated anti-human IgG Fc monoclonal antibody. Cells were washed once more, re-suspended in FACS buffer containing 1:1000 dilution of Sytox Green (Thermo Fisher) and flow cytometric analysis was conducted on the BD FACS Canto II, BD Celesta or BD Fortessa (BD Biosciences) flow cytometers. The geometric mean fluorescent intensity (gMFI) was calculated using FlowJo software version 10. Half maximal effective concentration (EC₅₀) values were calculated from the gMFI of the Allophycocyanin signal across the titrated concentrations using GraphPad Prism 7 software.
(§2) The anti-PD-1 variable region sequences were expressed as human IgG4 kappa antibodies and were evaluated for the ability to bind to PD-1 expressing cells using flow cytometry as described in General Methods Protocol A. Antibodies to be tested were first screened for binding to human PD-1 using a Jurkat cell line expressing recombinant human PD-1 (Jurkat+hPD-1 cell line).
A general note: In flow cytometry, cells or beads pass a laser one at a time.

For assay [2], the target named is T1, human PD-1 (amino acids 1-185) stably …. As to the kind of experiment: flow cytometry, Jurkat+hPD-1 cells, APC anti-human IgG Fc, gMFI; no competitor.
Description: Briefly, Jurkat cells stably expressing hPD-1 (as described in Protocol A above) were washed and re-suspended in FACS buffer containing 1:50 dilution of human FcR Blocking reagent. Cells were incubated at 4° C. for 10 minutes and washed. […] Cells were washed and incubated with test antibodies or antibody-attenuated hIL-2 fusion proteins serially diluted six-fold for an 8-point curve in 100 μL volume for one hour at 4° C. To detect bound test anti-hPD-1 antibodies or anti-hPD-1-attenuated hIL-2 fusion proteins, cells were washed again and incubated with 1:40 dilution of Allophycocyanin-conjugated anti-human IgG Fc monoclonal antibody for 45 minutes on ice. Cells were washed and re-suspended in FACS buffer containing 1:1000 dilution of Sytox Green (Thermo Fisher). […] Flow cytometry was carried out on the BD Canto II, BD Celesta, or BD Fortessa (BD Biosciences) flow cytometers and gMFI was calculated using FlowJo software version 10. EC₅₀ values were calculated from the gMFI of the Allophycocyanin signal across the titrated concentrations using GraphPad Prism 7 software.
Assay [3] addresses human PD-1 on Jurkat Effector cells (Promega PD-1/PD-L1 blockade bioassay) (human, UniProt Q15116 25-288). As to the kind of experiment: cell-based or functional assay.
Assay [4] has as its target T1, human PD-1 (amino acids 1-185) stably …. As to the kind of experiment: flow cytometry, Jurkat+hPD-1, multiple experiments. As to the method: as §1, §2

T1 sequence (Q15116 21-185 limits assumed, form in doubt): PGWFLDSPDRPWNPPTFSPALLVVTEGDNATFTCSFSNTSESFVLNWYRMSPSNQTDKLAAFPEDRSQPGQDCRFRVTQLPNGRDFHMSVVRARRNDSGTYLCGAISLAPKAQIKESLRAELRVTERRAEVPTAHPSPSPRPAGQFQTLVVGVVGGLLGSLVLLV
Sequence of human PD-1 on Jurkat Effector cells (Promega PD-1/PD-L1 blockade bioassay) (Q15116 25-288): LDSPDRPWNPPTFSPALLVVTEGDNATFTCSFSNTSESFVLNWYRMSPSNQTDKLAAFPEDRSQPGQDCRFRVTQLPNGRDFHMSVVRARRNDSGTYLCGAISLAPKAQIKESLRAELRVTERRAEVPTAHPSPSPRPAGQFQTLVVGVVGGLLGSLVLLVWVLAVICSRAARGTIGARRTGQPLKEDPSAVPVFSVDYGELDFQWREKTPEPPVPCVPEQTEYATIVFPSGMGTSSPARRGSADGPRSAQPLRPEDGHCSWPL

B1: A2-hIgG4 (antibody, V domains shown)
VH: DVQLVESGGGLVQPGGSLRLSCAASGFTFDISAMSWVRQAPGKGLEWVSTISGSAYSTYYADSVKGRFTISRDNSKSTLYLQMNSLRAEDTAVYYCAREIFSDYWGLGTLVTVSS
VL: QSVLTQPPSASGTPGQRVTISCSGSTSNIGRESVYWYQQLPGTAPKLLIYSNVQRPSGAPNRFSGSKSGTSASLAISGLQSEDEADYYCGTWDDSLNGWVFGGGTKLTVLG
In the case of B1, the EC50 (usually the concentration at which the effect is half-maximal) in assay [1] was 3 to 16 nM.

B2: C51E6-5-hIgG4 (antibody, V domains shown)
VH: QVQLVQSGSELKKPGASVKVSCKASGYSLYGTSMHWVRQAPGQGLEWMGYISPFTGRATYAQGFTGRFVFSLDTSVSTAYLQISSLKAEDTAVYYCARDYDYRYYYAMDYWGQGTTVTVSS
VL: EIVLTQSPDFQSVTPKEKVTITCTASESVPPQFLHWYQQKPDQSPKLLIYASRERASGVPSRFSGSGSGTDFTLTINSLEAEDAATYYCHQFHRSPLTFGGGTKLEIKR
Regarding B2, the EC50 (read off the curve) (commonly the concentration giving half of the maximal effect) in assay [2] is approximately 3 nM.

B3: OMC.2.C6-hIgG4 (antibody, V domains shown)
VH: EVQLLESGGGLVQPGGSLRLSCTASGFTFSSYEMQWVRQAPGKGLEWVLGITSSSSHIFYADSVKGRFTVSRDNSKNTLYLQMNSLRAEDTAVYYCTKDLNSYYGLDVWGQGTTVTVSS
VL: QSVMTQPPSASGTPGQRVTISCSGSTSNLGNNYVSWYQHLPGTAPKLLIYGNDQRPSGVPDRFSGSKSGTSASLAISGLQSDDEADYYCSSWDASLNVWVFGGGTKLTVLG
With B3, the “luminescence, hPD-1/hPD-L1 blockade bioassay” value in assay [3] was approximately 3000 RLU. Further, the half-maximal effective concentration (EC50) in assay [1] lay within 3 to 16 nM.

B4: 2A3.H7-hIgG4 (antibody, V domains shown)
VH: EVQLLESGGGLVQPGGSLRLSCAASGFTFKDYCMTWVRQAPGKGLEWVSAIVYSGGSTYYADSVKGRFTISRDNSKNTLYLQMNNLRAEDTAVYYCAKYTRASYFYDAMDVWGQGTTVTVSS
VL: EIVLTQSPGTLSLSPGERATLSCRASQSIGRSFLAWYQQKPGQAPRLLIYDASTRAADIPARFSGSGSGTDFTLTISSLEPEDFAVYYCQQYYDWPPLSFGGGTKVEIKR
B4: the “luminescence, hPD-1/hPD-L1 blockade bioassay” value in assay [3] was approximately 3000 RLU. In addition, in assay [4], the EC50 was 0.1 to 0.3 nM.

B5: 2H7-hIgG4 (antibody)
heavy: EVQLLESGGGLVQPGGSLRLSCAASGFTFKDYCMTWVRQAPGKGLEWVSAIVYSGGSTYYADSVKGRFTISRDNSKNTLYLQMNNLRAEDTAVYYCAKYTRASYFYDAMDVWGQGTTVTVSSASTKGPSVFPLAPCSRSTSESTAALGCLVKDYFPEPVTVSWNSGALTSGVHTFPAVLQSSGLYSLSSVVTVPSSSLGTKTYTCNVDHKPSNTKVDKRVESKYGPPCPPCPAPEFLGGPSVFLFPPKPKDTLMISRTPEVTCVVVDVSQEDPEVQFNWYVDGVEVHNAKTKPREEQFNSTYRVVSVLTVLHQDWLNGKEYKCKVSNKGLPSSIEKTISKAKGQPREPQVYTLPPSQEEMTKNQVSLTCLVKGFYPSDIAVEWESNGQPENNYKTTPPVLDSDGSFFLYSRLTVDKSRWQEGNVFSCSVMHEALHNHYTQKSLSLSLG
light: EIVLTQSPGTLSLSPGERATLSCRASQSIGKSFLAWYQQKPGQAPRLLIYDASTRAADIPARFSGSGSGTDFTLTISSLEPEDFAVYYCQQYYDWPPLSFGGGTKVEIKRTVAAPSVFIFPPSDEQLKSGTASVVCLLNNFYPREAKVQWKVDNALQSGNSQESVTEQDSKDSTYSLSSTLTLSKADYEKHKVYACEVTHQGLSSPVTKSFNRGEC
notes: human IgG4 kappa
As to B5, the 50% effective concentration (EC50) in assay [4] was 0.1 to 0.3 nM.

B6: 1D5-hIgG4 (antibody, V domains shown)
VH: B4 VH with A23V, A24G, T28N, N85S, A102G
VL: B4 VL with A57T, A61D, D71E, E80Q, P81S, S99T
For B6, the “luminescence, hPD-1/hPD-L1 blockade bioassay” value in assay [3] is approximately 3000 RLU. The EC50 in assay [4] lay within 0.1 to 0.3 nM.

B7: 1H9-hIgG4 (antibody, V domains shown)
VH: B4 VH with A23V, A24G, T28N, F29L, N85S, A102G
VL: B4 VL with A61D, S77N, S78R, S99T
B7: the “luminescence, hPD-1/hPD-L1 blockade bioassay” value in assay [3] was approximately 3000 RLU. The molecule further registered an EC50 in assay [4] of 0.1 to 0.3 nM.

B8: OMC.1.B6-hIgG4 (antibody, V domains shown)
VH: EVQLLESGGGLVQPGGSLRLSCAASGFTFSSNYMSWVRQAPGKGLEWVSAISSSGGTIFYADSVKGRFTISRDNSKNTLYLQMNSLRAEDTAVYYCAKHKWNAVYYDGMDVWGQGTTVTVSS
VL: QSVLTQPPSASGTPGQRVTISCSGSNSNIGRNLVNWYQQLPGTAPKLLIYTIDQRPSGVPDRFSGSKSGTSASLVISGLQSEDEADYYCAAWDGSLNAWVFGGGTKLTVLG
For B8, the “luminescence, hPD-1/hPD-L1 blockade bioassay” value in assay [3] was approximately 3000 RLU. This molecule gave an EC50 in assay [1] of 3 to 16 nM.

B9: OMC.1.D6-hIgG4 (antibody, V domains shown)
VH: B8 VH with S31D, N32Y, T69I, A103D, G108A
VL: B8 VL with I52V, V75A, Q80A, G94S, A98S
B9: in assay [3], the “luminescence, hPD-1/hPD-L1 blockade bioassay” value was approximately 3000 RLU. In assay [1], this molecule returned a concentration giving a half-maximal response (EC50) of 3 to 16 nM.

These data come from patent US20250195677A1 (CEPHALON, published 2025).
